The record followed here is publication PMC5120205 (2016).

The target of one experiment is IsdB NEAT2 domain (Staphylococcus aureus strain USA300). Briefly: SPR. For orientation: Surface plasmon resonance follows binding to a sensor surface in real time, without labels.
For experiment [1], the target named is recombinant full-length IsdB (Staphylococcus aureus strain USA300, UniProt Q2FHV2 41-613). The experiment can be described thus: SPR.

The term Kd denotes the constant that tells how readily two partners part at equilibrium.

B1: D2-06-N2 (IGHV1-69*01 germline-reverted) (antibody, V domains shown)
VH: QVQLVQSGAEVKKPGSSVKVSCKASGGTFSSYAISWVRQAPGQGLEWMGGIIPIFGTANYAQKFQGRVTITADESTSTAYMELSSLRSEDTAVYYCARDRPPGAQFDTWGQGTLVTVSS
VL: not shown
Molecule B1 showed a Kd in the experiment with IsdB NEAT2 domain of 24.1 nM.

B2: D4-10-N1 germline-reverted (IGHV4-39) (antibody, V domains shown)
VH: QLQLQESGPGLVKPSETLSLTCTVSGGSISSSSYYWGWIRQPPGKGLEWIGSIYYSGSTYYNPSLKSRVTISVDTSKNQFSLKLSSVTAADTAVYYCAKPKSRDRGGPGDDYFGMDVWGQGIMVTVSS
VL: DIQLTQSPSFLSASVADRVTITCRASQAVRSSLAWYQQKPGKAPQLLIYSASTLENGVSSRFSGSGPGTEFTLTISSLQPEDVGTYYCQQLNTYPFTFGPGTKVEIK
With B2, in experiment [1], the Kd came out at 90.7 nM.
